In one series the test system is HCV-Luc replicon. In words: HCV-Luc replicon luciferase assay in Huh-7 cells. Type of series: cell-based, hepatitis C virus. The note with it: peptide added to Huh-7 cells containing the replicon; 48 hours. The protocol: HCV Replicon assays: Huh-7 cells were transiently transfected with replicon RNA having a firefly (P. pyralis) luciferase gene (0.2 μg/well), and with a control plasmid pRL (0.05 μg/well) having a renilla (R. reniformis) luciferase gene, using DMRIEC (Invitrogen) reagent as per the kit protocol (19). The specific additions of pmNS3, mutant replicon, pwt-NS3 etc were done concurrently. The cells were lysed after 48 hours, and luciferase activity detected using the DUAL LUCIFERASE assay kit (Promega) (24, 25).
Trans complementation assays: These assays were performed in the same manner as the regular replicon assays except that in the trans complementation assays two RNA's of different replicons (wild type and the mutant) were added along with a pRL plasmid to control for transfection efficiency.
In vivo the dominant negative mNS3 (pmNS3) down regulates the activity of the HCV-Luc replicon: Huh-7 cells were plated in a 12-well plate at 0.1 million cells per well. […]
The peptide was introduced into Huh-7 cells containing the HCV luciferase replicon. 48 hours after introduction of the peptide, luciferase activity was measured. […]
A general note: A replicon is a self-replicating genome or part of one, used to study replication in cells.

Series [1] addresses fluorescein-labeled U20 RNA. In words: RNA binding assay by fluorescence polarization. The following applies: 37° C. The protocol: (§1) FIGS. 10A and B. Binding of mutant NS3h to fluorescein-labeled U20 RNA (FIG. 10A) or dT15 DNA (FIG. 10B). Nucleic acid binding was determined by measuring fluorescence polarization following incubation of protein and nucleic acid at 37° C. Data were fit to a hyperbola using Kaleidagraph software.
(§2) Varying concentrations of NS3h were incubated with 500 pM 5′-fluorescein-labeled rU20 (Integrated DNA Technologies) in 50 mM MOPS-K+(pH 7.0), 10 mM NaCl, 50 μM EDTA, 0.1 mg/ml BSA for 5 minutes at 37° C. Binding was measured as a function of fluorescence polarization using a Beacon fluorescence polarization system. Data were fit to a hyperbola using Kaleidagraph software.
(In fluorescence polarisation assays a small probe gives low polarisation when free and higher when bound to something large.)

The target in the next series is dT15 DNA. In words: DNA binding by fluorescence polarization. The note with it: 37° C. The protocol:
as §1, §2

The nature of series [2]: Coupled ATPase assay stimulated by polyU. It counts as biochemical. The note with it: saturating polyU. The protocol:
FIG. 11. ATPase activity of mutant NS3h was measured as a function of NADH concentration in a coupled assay at varying concentrations of polyU. Data were fit to a hyperbola using Kaleidagraph software. […] Specific activity of NS3h DDDD (▪) was lower.
NS3h was incubated with 5 mM ATP in 50 mM HEPES (pH=7.5), 5 mM EDTA, 10 mM MgCl2, 10 mM NaCl, 0.1 mg/ml BSA, 4 mM phosphoenolpyruvate, 10 U/ml pyruvate kinase/lactate dehydrogenase, and 0.7 mg/ml NADH. Absorbance of NADH at 380 nm was measured at 1 sec intervals for a period of 30 sec in the presence of the indicated concentrations of poly-U. Hydrolysis rates were calculated using an extinction coefficient of 1,210 M^−1 cm^−1 for NADH. Data were fit to a hyperbola using Kaleidagraph software.

Series [3] concerns 45:30mer DNA substrate. Put plainly: Steady state DNA unwinding assay. Type of series: biochemical. The protocol: FIGS. 12A-C. Steady state unwinding activity of mutant versus wild type NS3h. A) The assay for measuring helicase unwinding activity is depicted. A partially duplexed substrate containing 30 bp and 15 nt of ss overhang (45:30mer) was incubated with NS3h in the presence of ATP and Mg^+2 leading to unwinding of the duplex. B) Comparison of unwinding of DNA and RNA substrates by NS3h. Otherwise identical 250 nM duplexed DNA and RNA substrates were incubated with 100 nM NS3h. Reactions were initiated by addition of 5 mM ATP and 10 mM MgCl2 and quenched by addition of 200 mM EDTA/0.7% SDS. C) Unwinding of 250 nM substrate under steady state conditions. Unwinding by 100 nM NS3h (●), NS3h KDA (∘), and NS3h DDDD (▪) occurred at rates of 5.3 nM min^−1, 5.7 nM min^−1, and 4.1 nM min^−1, respectively.
The substrate used was a 45-mer/30-mer containing 30 base pairs of double-stranded DNA with a 15 base 3′ single-stranded overhang. One strand was radiolabeled by incubation with γ-^32P-ATP and T4 polynucleotide kinase at 37° C. for 60 min. Unincorporated ATP was removed by SEPHADEX G-25 filtration. Equimolar amounts of labeled and complementary unlabeled strands were combined, heated to 95° C. for 10 min, and cooled slowly to room temperature to generate the final substrate. For steady state unwinding experiments, 100 nM NS3h was incubated with 250 nM substrate in 25 mM HEPES (pH=7.5), 0.5 mM EDTA, 10 mM MgCl2, 10 mM NaCl, 0.1 mg/ml BSA. Reactions were initiated by addition of 5 mM ATP. Aliquots were taken at specific time points and the reaction was quenched by addition of 200 mM EDTA, 0.7% SDS. Substrate and product were separated by native polyacrylamide gel electrophoresis and detected and quantified by phosphorimaging analysis.

For series [4], the system named is partial duplex DNA substrate (15 nt single stranded, 30 base pairs). In words: ATP-independent DNA unwinding assay. Type of series: biochemical. The note with it: 500 nM enzyme, excess over substrate, no ATP, 37° C. The protocol: FIG. 13. Graph showing ATP-independent unwinding activity of NS3h wild-type, NS3h KDA, and NS3h DDDD. NS3h, 500 nM, was incubated with a partial duplex DNA substrate containing 15 nt of single stranded DNA and 30 base pairs at 37° C. Aliquots were quenched by addition of 100 μM poly dT and 60 nM of a 30mer oligonucleotide that served to prevent reannealing. ssDNA was separated from dsDNA by native polyacrylamide electrophoresis and the resulting fractions were quantified by using IMAGEQUANT software. DNA melting is shown for NS3h (●), NS3h KDA (♦), and NS3h DDDD (▪).
NS3h or NS3h mutant enzymes (500 nM) were mixed with 2 nM DNA substrate (described in steady state section) in 25 mM MOPS (pH 7.0), 10 mM NaCl, 0.1 mM EDTA (pH 8.0), 2 mM βME, and 0.1 mg/mL BSA at 37° C. Aliquots were transferred to a ‘quench solution’ containing 200 mM EDTA, 0.7% SDS, 5 mM ATP, 10 mM MgCl2, 60 nM annealing trap, and 100 μM poly-dT protein trap. Double- and single-stranded DNA were resolved on a native 20% polyacrylamide gel. The radiolabeled substrate and product were detected using a PHOSPHORIMAGER (Molecular Dynamics, Sunnyvale, Calif.); quantitation was performed with IMAGEQUANT software. The ratio of single- to double-stranded DNA was determined and plotted as a function of time.

Series [5] concerns 45:30mer DNA substrate. In words: Single turnover DNA unwinding assay (quench-flow, two-step mixing). It counts as biochemical. The note with it: for single turnover unwinding rate / amplitude for unwinding: 500 nM enzyme; for single turnover unwinding rate: 2 nM substrate, fit to equation 1; for amplitude for unwinding: single turnover. The protocol: FIG. 14. Single turnover DNA unwinding by NS3h and NS3h mutant enzymes. A two-step mixing technique was used to measure single-turnover unwinding in the presence of excess NS3h. NS3h (500 nM) or mutant enzyme was rapidly mixed with substrate followed by a 10-second incubation. A second, rapid mixing step followed in which ATP, Mg^+2, and protein trap (poly dT) was added. Data were fit according to equation 1 resulting in unwinding rates of 3.1±0.1 s^−1 and 3.7±0.1 s−1 for NS3h (●) and NS3h KDA (♦), respectively. The amplitudes for unwinding were 0.35±0.01 nM and 0.21±0.01 nM for NS3h and NS3h KDA, respectively.
Unwinding assays were carried out using a Quench-Flow apparatus (RQF-3, KinTek Instruments, Austin, Tex.) with a two-step mixing protocol (49). Reactions were carried out in 25 mM MOPS (pH 7.0), 10 mM NaCl, 0.1 mM EDTA (pH 8.0), 2 mM βME, and 0.1 mg/mL BSA at 37° C.; all concentrations are post-mixing. NS3h (500 nM) was mixed with 2 nM DNA substrate (described in steady state section) for 10 seconds before adding 5 mM ATP, 10 mM MgCl2, 60 nM annealing trap (complementary to the displaced strand), and 100 μM poly-dT protein trap. The reaction was quenched after 0.1-15 seconds by ejection into a tube containing 200 mM EDTA, 0.7% SDS. Double- and single-stranded DNA were resolved on a native 20% polyacrylamide gel. The radiolabeled substrate and product were detected using a PHOSPHORIMAGER (Molecular Dynamics, Sunnyvale, Calif.); quantitation was performed with IMAGEQUANT software. The ratio of single- to double-stranded DNA was determined and plotted as a function of time. Data were fit to Equation 1, using KALEIDAGRAPH (Synergy Software, Reading, Pa.). This equation describes a 5-step mechanism for DNA unwinding that is necessary to fit the substantial lag phase associated with unwinding of the substrate (49, 52, 53). A{1−[1+kobst+1/2 (kobst)^2+1/6 (kobst)^3+1/24(kobst)^4]e^−kobs^t} Eq. 1 Results Crystallization and Structural Analysis of NS3h Bound to (dU)16

[6] abbreviates: 100 nM enzyme, 250 nM substrate.

Substitutions are numbered along the chain they refer to. In names and notes the source's numbering stands.

Turning to “HIDAHFLSQTK-GGG-YARAAARQARA (HIDAHFLSQTKGGGYARAAARQARA; NS3-oligomerization inhibitor peptide with cell entry peptide) [HCV inhibitor peptide, 25 amino acid peptide: NS3 residues 541-551, three-glycine linker, peptide transduction domain …]”, in the series with HCV-Luc replicon, the “luciferase activity of HCV luciferase replicon after peptide” value is “strongly reduced the luciferase activity”.

B1: NS3h: wild type HCV NS3 helicase domain, expressed and purified independently of NS3 protease (protein)
chain: AVDFVPVESMETTMRSPVFTDNSSPPAVPQTFQVAHLHAPTGSGKSTKVPAAYAAQGYKVLVLNPSVAATLGFGAYMSKAHGIDPNIRTGVRTITTGAPITYSTYGKFLADGGCSGGAYDIIICDECHSTDSTTILGIGTVLDQAETAGARLVVLATATPPGSVTVPHPNIEEVALSSTGEIPFYGKAIPIETIKGGRHLIFCHSKKKCDELAAKLSGLGLNAVAYYRGLDVSVIPTSGDVIVVATDALMTGFTGDFDSVIDCNTCVTQTVDFSLDPTFTIETTTVPQDAVSRSQRRGRTGRGRMGIYRFVTPGERPSGMFDSSVLCECYDAGCAWYELTPAETSVRLRAYLNTPGLPVCQDHLEFWESVFTGLTHIDAHFLSQTKQAGDNFPYLVAYQATVCARAQAPPPSWDQMWKCLIRLKPTLHGPTPLLYRLGAVQNEVTTTHPITKYIMACMSADLEVVT
Consider B1, for which the values for the Kd (in series [1]; at dT15 DNA) were 47 ± 5 nM and 5.9 ± 1.4 nM, respectively. In series [2], the ATPase specific activity is 126 s⁻¹. Moreover, the “steady state unwinding rate” value in the series on 45:30mer DNA substrate [3] (setting [6]) was 5.3 nM/min; with 45:30mer DNA substrate [3] (45:30mer DNA, steady state conditions), “approximately 1 nM/min”. Moreover, in series [4], the ATP-independent unwinding entry is recorded as “much greater ATP-independent unwinding than NS3h KDA or NS3h DDDD”. Besides, the “single turnover unwinding rate” value in the series on 45:30mer DNA substrate [5] is 3.1 ± 0.1 s⁻¹. Also, the “fraction of 45:30mer unwound” value with 45:30mer DNA substrate [5] (same substrate, same conditions for both forms (unpublished data)) came out at 17%. Also, in the series with 45:30mer DNA substrate [5], the amplitude for unwinding turned out to be 0.35 ± 0.01 nM.

B2: NS3h KDA: purified NS3 helicase domain with D543K/H545D/Q549A mutations (protein)
chain: B1 chain with D378K, H380D, Q384A
As to B2, the affinity in series [1], expressed as Kd, was 38 ± 4 nM. Also, on dT15 DNA, binding was characterised by a dissociation constant (Kd) of 2.6 ± 0.8 nM. In addition, the ATPase specific activity in series [2] came out at 108 s⁻¹. Also, the “steady state unwinding rate” value in the series with 45:30mer DNA substrate [3] (setting [6]) was 5.7 nM/min. For the same molecule, in the series with 45:30mer DNA substrate [5], the “single turnover unwinding rate” value is 3.7 ± 0.1 s⁻¹ and the amplitude for unwinding was 0.21 ± 0.01 nM.

Source of the values: patent US7465537B2, “Compounds and methods for inhibiting hepatitis C virus replication” (The Board of Trustees of the University of Arkansas, priority 2005, dated 2008).
